Data from patent US20260000597A1 (priority 2018, published 2026).

Target: AchR (Homo sapiens, UniProt P02708)
Assay: ELISA of screened peptide phages on AchR versus streptavidin (OD450)
Format: binding
Details: ELISA of selected 14-mer (L3) peptide phages on AchR, absorbance at 450 nm; Spep-2 positive control
Procedure, shortened: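 Phage supernatants from 4th–5th round plaques, in 2% BSA, applied 1 h at 30 °C to wells coated with 5 μg/ml AchR or streptavidin. Bound phage detected with HRP anti-M13 and TMB at OD450; value given as AchR/streptavidin signal ratio.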

AchR, sequence (P02708 21-457): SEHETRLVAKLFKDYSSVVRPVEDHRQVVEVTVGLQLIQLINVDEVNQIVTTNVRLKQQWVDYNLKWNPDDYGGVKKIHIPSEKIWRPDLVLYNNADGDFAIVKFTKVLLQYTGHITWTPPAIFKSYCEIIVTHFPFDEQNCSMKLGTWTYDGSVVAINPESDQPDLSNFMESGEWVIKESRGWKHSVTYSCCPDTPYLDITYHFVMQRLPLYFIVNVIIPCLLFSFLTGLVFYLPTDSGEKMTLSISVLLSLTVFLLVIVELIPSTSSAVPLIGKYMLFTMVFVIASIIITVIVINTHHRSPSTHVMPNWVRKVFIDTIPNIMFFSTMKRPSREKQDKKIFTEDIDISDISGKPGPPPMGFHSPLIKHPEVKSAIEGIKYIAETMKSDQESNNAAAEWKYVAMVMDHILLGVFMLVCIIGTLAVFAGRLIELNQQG

“L3-100 (LEERPKKHCAKNHC; AchR binding peptide) [Peptide L3-100]” was tested, and the OD was 0.572.

“L3-101 (QPWRQKKFWCRCWG; AchR binding peptide) [Peptide L3-101]” gave an OD of 0.758.

“L3-102 (IMVKIRRCPARPLC; AchR binding peptide) [Peptide L3-102]” was tested, and the OD was 0.581.

For “L3-103 (NDWKLRKDFWRNHF; AchR binding peptide) [Peptide L3-103]”, the OD was 0.676.

For “L3-104 (ASVRDRKMGYKSDG; AchR binding peptide) [Peptide L3-104]”, the OD was 0.57.

With “L3-105 (YYEKIRRGEIKIAE; AchR binding peptide) [Peptide L3-105]” the OD was 0.601.

Substance “L3-106 (DLVRKRKTMLRQLV; AchR binding peptide) [Peptide L3-106]” has an OD of 0.642.

For “L3-107 (DLSKVRRGHGKNDI; AchR binding peptide) [Peptide L3-107]”, the OD was 0.658.

Work on “L3-108 (ESYRLRRGTDKEQW; AchR binding peptide) [Peptide L3-108]” yielded an OD of 0.621.

In the case of “L3-109 (YITKFRKFLMKDQF; AchR binding peptide) [Peptide L3-109]”, the OD is reported as 0.613.

In the case of “L3-110 (AWAKYKKVQPKHHT; AchR binding peptide) [Peptide L3-110]”, the OD is reported as 0.538.

“L3-111 (TWLRGRRWPDKQPQ; AchR binding peptide) [Peptide L3-111]” was tested, and the OD was 0.976.

Substance “L3-112 (ALPRVRKDSHREEI; AchR binding peptide) [Peptide L3-112]” has an OD of 0.731.

“L3-113 (CLFKYRKSCVRLCG; AchR binding peptide) [Peptide L3-113]” showed an OD of 0.766.

“L3-114 (LQNRMRKIYWKTFD; AchR binding peptide) [Peptide L3-114]” showed an OD of 0.646.

“L3-115 (NDPRLRKHNHRCCT; AchR binding peptide) [Peptide L3-115]” showed an OD of 0.685.

For “L3-116 (YGSKQRRFEEKICG; AchR binding peptide) [Peptide L3-116]”, the OD was 0.644.

Work on “L3-117 (CGHKNKKWHNRMDP; AchR binding peptide) [Peptide L3-117]” yielded an OD of 0.696.

With “L3-118 (YGIRDRRPMTKHTQ; AchR binding peptide) [Peptide L3-118]” the OD was 0.69.

Work on “L3-119 (TPLKSRKYWNKHAY; AchR binding peptide) [Peptide L3-119]” yielded an OD of 0.693.

Substance “L3-120 (FLYKAKKALMRDSL; AchR binding peptide) [Peptide L3-120]” has an OD of 0.887.

“L3-121 (CDDKPKKTVVKLTW; AchR binding peptide) [Peptide L3-121]” was tested, and the OD was 0.655.

In the case of “L3-122 (MHPRPRKMSHKMSC; AchR binding peptide) [Peptide L3-122]”, the OD is reported as 0.691.

“L3-123 (PGERLKKEDHRASG; AchR binding peptide) [Peptide L3-123]” showed an OD of 0.654.

Work on “L3-124 (GAQRARKPVLRAVG; AchR binding peptide) [Peptide L3-124]” yielded an OD of 0.515.

“L3-125 (MQEKCRRCVFKGNI; AchR binding peptide) [Peptide L3-125]” showed an OD of 0.629.

“L3-126 (YVDRWRRMQYKLSI; AchR binding peptide) [Peptide L3-126]” showed an OD of 0.542.

For “L3-127 (WVDRSRKFEDRNCL; AchR binding peptide) [Peptide L3-127]”, the OD was 0.608.

With “L3-128 (IVNRAKRSQIRFDV; AchR binding peptide) [Peptide L3-128]” the OD was 0.523.

For “L3-129 (IHPRYKRHQARSCC; AchR binding peptide) [Peptide L3-129]”, the OD was 0.606.

“L3-130 (EHSKHRKDLFRMVG; AchR binding peptide) [Peptide L3-130]” gave an OD of 0.531.

Substance “L3-131 (YTPKFRRIFWRIID; AchR binding peptide) [Peptide L3-131]” has an OD of 0.655.

Work on “L3-132 (TITRVKRASHKTPS; AchR binding peptide) [Peptide L3-132]” yielded an OD of 0.619.

Substance “L3-133 (VDSREKKWRQKCQC; AchR binding peptide) [Peptide L3-133]” has an OD of 0.566.

“L3-134 (YWFRIKRAHAKGCP; AchR binding peptide) [Peptide L3-134]” showed an OD of 0.653.

In the case of “L3-135 (NDHRMRRSVDRGET; AchR binding peptide) [Peptide L3-135]”, the OD is reported as 0.69.

Substance “L3-136 (PFDRARRDLHRIMM; AchR binding peptide) [Peptide L3-136]” has an OD of 0.512.

“L3-137 (QVVRLRRGKNRGTV; AchR binding peptide) [Peptide L3-137]” gave an OD of 0.565.

“L3-138 (TNQRPRRETAKTIE; AchR binding peptide) [Peptide L3-138]” gave an OD of 0.576.

Work on “L3-139 (FHHRHKRIATKHPA; AchR binding peptide) [Peptide L3-139]” yielded an OD of 0.49.

In the case of “L3-140 (EHCKWKKMFDKEGE; AchR binding peptide) [Peptide L3-140]”, the OD is reported as 0.607.

“L3-141 (FFYRLRRCLTRWWV; AchR binding peptide) [Peptide L3-141]” gave an OD of 0.504.

With “L3-142 (LQCKYRRGSDKTVV; AchR binding peptide) [Peptide L3-142]” the OD was 0.502.

“L3-143 (QTMKFKRCCNKEMV; AchR binding peptide) [Peptide L3-143]” showed an OD of 0.559.

“L3-144 (CSYKLRRCDMRLWG; AchR binding peptide) [Peptide L3-144]” gave an OD of 0.578.

“L3-145 (MHIKMKREQVKDEE; AchR binding peptide) [Peptide L3-145]” showed an OD of 0.495.

For “L3-146 (AVWRNRKDNVKASE; AchR binding peptide) [Peptide L3-146]”, the OD was 0.512.

Substance “L3-147 (ADHRAKKTLSKFWT; AchR binding peptide) [Peptide L3-147]” has an OD of 0.562.

“L3-148 (MMARCRRIMCRSFN; AchR binding peptide) [Peptide L3-148]” showed an OD of 0.451.

For “L3-149 (PFGKFKRLENKDEC; AchR binding peptide) [Peptide L3-149]”, the OD was 0.571.

Work on “L3-150 (YLSRTKRWLARYVE; AchR binding peptide) [Peptide L3-150]” yielded an OD of 0.518.

With “L3-151 (HTLKPKRLYPRPSE; AchR binding peptide) [Peptide L3-151]” the OD was 0.624.

Substance “L3-152 (VVIKCRKWTHKMDH; AchR binding peptide) [Peptide L3-152]” has an OD of 0.818.

“L3-153 (FHTKLRKPIPKIDM; AchR binding peptide) [Peptide L3-153]” gave an OD of 0.768.

Substance “L3-154 (ENIKSRKYFVKLTW; AchR binding peptide) [Peptide L3-154]” has an OD of 0.766.

“L3-155 (AWTRFRRFQCKGMS; AchR binding peptide) [Peptide L3-155]” gave an OD of 0.794.

“L3-156 (IVPRDRKQALRWTN; AchR binding peptide) [Peptide L3-156]” was tested, and the OD was 0.799.

Work on “L3-157 (CMLRWKRWHMRFNP; AchR binding peptide) [Peptide L3-157]” yielded an OD of 0.731.

“L3-158 (FDMRDRRPNARVMP; AchR binding peptide) [Peptide L3-158]” gave an OD of 0.738.

For “L3-159 (QIAKLKRDQMKEAW; AchR binding peptide) [Peptide L3-159]”, the OD was 0.786.

Work on “L3-160 (LTSRCKKTFQKNSE; AchR binding peptide) [Peptide L3-160]” yielded an OD of 0.792.
